Laboratory results reported in the Human Domainome abundance scans (Beltran et al. 2025).

B1: Max-interacting protein 1, residues 70 to 120; numbered along this chain, P50539 (parent)
chain: STHNELEKNRRAHLRLCLERLKVLIPLGPDCTRHTTLGLLNKAKAHIKKLE

Variants of: B1
Assay: abundance fitness (aPCA) (normalised: wild type 0, dead -1); higher = more abundant; growth selection in yeast, the domain comes from the species named
Conditions: Homo sapiens

Abundance fitness, by site and new letter:
C17: S -0.641, G -0.402, V 0.061, A -0.193, R -0.729, P -0.232, T -0.666, Q -0.635, Y -0.284, E -0.681, M 0.123, L 0.101, H -0.683, F 0.048, I -0.617
E19: C -0.618, A -0.23, Y -0.79, Q -0.185, K -0.467, D -0.252, V -0.999, H -0.236, S -0.083, T -0.532, I -0.43, L -0.791, R -0.513, N 0.202, W -0.782, P -0.358, F -0.623, M -0.678
A12: F -0.826, V -0.438, W -0.193, Y -0.932, G -0.063, T 0.124, C -0.426, D -0.438, K -0.048, I -0.847, E -0.432, S 0.018, R -0.327, N -0.185, L -0.651, Q -0.305, P -0.102, H -0.666
L14: T -0.368, D -0.274, N -0.735, V -0.356, C -0.315, E -0.645, K -0.625, S -0.299, H -0.143, A -0.197, P -0.064, W 0.187, R -0.447, F 0.096, Y 0.111, M -0.208, G -0.265
L27: V -0.009, M -0.031, H -0.146, C -0.573, D -0.512, S 0.166, Q -0.149, I -0.004, A -0.006, G 0.18, T 0.074, R 0.308, E -0.423, Y -0.39, P 0.359
L24: M -0.292, G -0.461, D -1, N -0.715, A -0.329, T -0.455, H -0.139, P -0.938, E -0.751, K -0.294, I 0.137, C -0.013, R 0.013, Q -0.569, V -0.193, S -0.391, W 0.244, F -0.277
L21: T -0.832, C -0.503, H -0.335, D -1.23, R -1.05, Q -0.495, I -0.144, G -0.957, A -0.547, W -0.594, F -0.398, K -0.739, E -0.931, P -0.978, M -0.358, S -0.915, N -1.17, V -0.669
R15: T -0.407, L -0.432, Q -0.369, K 0.143, C -0.801, Y -0.941, P -0.21, S -0.231, H -0.462, M -0.462, N -0.777, F -0.269, E -0.476, W -0.27, A -0.211, V -0.678, G -0.383, D -0.749
L18: K -0.515, D -0.625, Q -1.08, I -0.295, E -1.07, A -0.275, S -0.455, C -0.61, H -1.12, R -0.652, Y -0.305, F -0.001, T -0.824, M -0.405, P -0.542
R11: C -0.256, I -0.252, L -0.062, V -0.509, M -0.261, H -0.13, K 0.223, W -0.257, P -0.105, S -0.375, D -0.19, F -0.396, A -0.547, T -0.352, Q -0.281
